The data set is described as follows: label from the status in PepcDB records.

Turning to “MSITERFFYLEKEPCVIYLPEKPNGFSVMLLGDYNYFIENGTSLWTQHTGRSYFLHGLIEEGYTVFSSNLYGRHWGNDQSVRLAKRLYDVVLRKETLNAKMHIMADGMGALVALEMMNKYPECIRSVIMLNPCLDLPEYVEFEKEHKFFYKRLLKELSLAYDAKEEELEA”, the protein production entry is “failed”.

Consider “MSITRRDILKGAAATGAIAATSVLSGCQKTGATNSMADLAHKIKRPNLLIIFPDEMRAQALGFMGEDPSLTPNLNRFAKDSAVLKQAVSNFPLCTPFRGMLMTGQYPYRNGIQGNSHTATPGMFGGKDFGIELKKNQSTWSDILSQQGYSMGYIGKWHLDAPEAPFVPSYNNPMEGRYWNDWTTPDRRHGFDFWYSYGTYDKHLTPMYWTNDTPRDQPLHINQWSPEHEADIAIKYLRNENGNYRNNDKPFTLVVSMNPPHSPYDQVPQKYLDRFKESSRTLNSRPNVQWDKEYLEGYGPEYFKEYMAMVNGVDEQFGRIVDELDALNLAKDTLVVFFSDHGCCMGSNGNPTKNVHYEEAMRIPMMFRWPGKIAPKSDDLLFSAPDIYPTLFGLMGMDDLIPDTVEGTDFSKTVKSESGDIKPTSQFYTFMPYGGQSYGRRGIRNKQYTLMIDRKIGKPLTYVLHDNQVDPYQMKNIAEQQPELISQLIQNELMPWLEHTGDPWRPTEVPKNTANAYT”, for which the protein production result is “failed”.

Turning to “MSIWWLNNTVRVAREKEAVENLATETEWFVLDRWEIHDYKFAAIGSIVAHGATYPIRLVYPDNFPLVPAWVEPQDPEAKWSYHQYGKGGALCLELRPDNWTSRANGADVLRSAYGLLNLENPLGDGEKGKVTSAHNVGEIQKYNWGESPVFIGQECLTRLLSGDIQDVNALRWSASDKVWPIFLSDAVDRQGVQRPPSADLNTWRLHVPVALVSGKVPDGLPSERSTFISTLWESSPVEGEVNFVTVFIEDDGINVFHVLSDNAYHRKVYVLPPETGLRSGRAPSAQAKKVAVVGAGSVGSKVAEMLLRSGIDTLRIFDGDVFLPGNLERHVLDWRDVGYHKVHGLKRRLLHIVPGADIMTIDQNLNWQKSARTNALHFDLITACDIIVDASGDPATSMLLGALAFENKKPFVSVEVFEGGIGALVAPSVPERNAAYTLGREALLNWTDEKGRVVPLSAGDRAYEAISDDGDIIVADDAAISMAASHAARVVLDILDDKLDDFRWLLIGFRKEWAFDMHGHVIALDVGGPSEWNNNTEDADAQKFVIEIAGELLDVLKAFTQ”, the protein production result is reported as “failed”.

For the sequence “MSIYMIGLIRHSETKVFNKALIQGSLIAYIVFMLFAWGGEAIFSKYLNVRFEAFQIFGGLIFLVIGYRYVFQGADTIGEMRGAPEHLAGTIAMPFMIGPGTISAAVVTGIEMSIGAAALVIGFTMFLTCSILILMKFSHDHLRYKHAKYIDRYFDIVGRLSALLIGTIAVDMIINGVTGLIHKV”, the protein production result is “failed”.

Consider “MSKAIVLDSHLKEKGSVELPKRYESINSHNLYLYVKHYLSSARANTAKSKNRAEVSGGGRKPWAQKGGGRARAGSITSPVFVGGGVSHGATNNRNYNLKINKKQKRLALEYALEEKAQANKLFVVEKIAIKGVVEDNKRKHLTKEANQMFQALEQRDTLFVCMNMDEYTELAFSNLKKCLIVDVSELNAYLLAAFSSVVMEEAAFQHVVQDKTEE”, for which the protein production entry is reported as “failed”.

As for “MSKDVKPTRKNLMAIEDRIELSERGHDTLEKKRDGLIMEFMDILDQAQDVRSDLDENYERAQRNINMARAMEGDVAVRGAAAALKEHPEITTQSKNIMGVVVPQIESTKVKKSLDQRGYGLVGTSARIDEAADAYEELLETIILAAEVETAMKKMLDEIEKTKRRVNALEFKLLPELHEAQEYIEQKLEEQEREEIFRMKKIKAKKEEEEEENPVADTESAAEAAVTEAGQ”, the protein production entry is recorded as “failed”.

“MSKEIFDTFKFKCGAELKNRVLMAPMTIQAGYFDGSVTSEMIDYYQFRAGDASAIIVESCFVENHGRGFPGAIGIDNDDKIPGLKRLAEAIQAKGSKAILQLYHAGRMANPKFNEGEQPISASPIAALRPDAVPPREMTHAQINQMIDDFGEATRRAIEAGFDGVEIHGANTYLLQQFFSPHSNRRQDSWGGSREKRTRFPIEVLTKVQHVVAEKEASHFIIGYRFSPEEIEEPGIRFEDTMFLLNTLAEYEPDYFHISANSYQRTSIVNQEDTEPLINKYIKMQSAQLAKIPLIGVGSIAQRQDAEHALELGYDLLSVGKAYLVEPQWTDKISQNEEVEQFVDIHDQKVLHIPSPLWKVMDFMILDKEEEHRKYEKLKALQNKKVKFNKGTYHVYAKGHNGNLPMKVQLSEDKIVSIEVDDSGESEGIANPVFERLPQDIINGQTLNVDVISGATVTSEGIVQGIADAIEQAGEDPDILRARPKPVVQWSDEVVEETTDVVVIGTGGAGLSAAATVLDEGKEVIMLEKFAAIGGNTIRTGGQVNAAEPKWQNAFPALAGEKETLIQLLNHDENDIDEAYIEDFNTLKRQIKDYLENSSNEDEYLFDSVELHRIQTYLGGKRKDRNNVEISGDYDLVKTLTDNVLESVYWLKDKGVHFDRSFVDMPVGALWRRGHKPMKAQGLEYIENLGDYVKHNHGRIFTETTAEKLIKEGNQVVGIEARKANGAKVKIHTRHGVVLATGGFGANTKMLQQYNTYWDNIPDDIKTTNSPAITGDGIRLGVQAGADIVGMGFSQMMPISDPKTGALFTGLIVTPSNFVFVNKEGQRFVNEFESRDVLSKAALEQKDGIFYIIADANIKALAMNTTEDKINQELEDGTLVKADTLEALAQKLNIDTTTFVNTIERYNTFVEQGQDEDFNKNAFDLKIEKAPFYATPRKPAIHHTMGGLKINTHAQVIDVEGHIIEGLYAAGEVAGGIHAGNRLGGNALADIFTFGRIAGQSAVTK”: the protein production result is recorded as “failed”.

As to “MSKFAMVFPGQGSQSLGMLADLAAQFPIVEATFSEASSVLGYDLWQLVQQGPAEELNKTWQTQPALLTASVAIWRIWQHQGGKLPSLMAGHSLGEYSALVCAGVLDFKQAVSLVELRGKLMQEAVPEGTGAMYAIIGLDNESIAKACEESAQGQVVSPVNFNSPGQVVIAGNKDAVERAGAACKAAGAKRALPLPVSVPSHCALMKPAADKLAVALEKIDFQEPLFPVVNNVDVKAEVSPVAIRSALVRQLYNPVRWTESVEFIAAEGVELLLEIGPGKVLTGLTKRIVDSLAAAAVNDVVTLNSALEH”, the protein production entry was “failed”.

Turning to “MSKFTIHTIETAPERVKETLRTVKKDNGGYIPNLIGLLANAPTALETYRTVGEINRRNSLTPTEREVVQITAAVTNGCAFCVAGHTAFSIKQIQMAPDLLEALRNATPIDDDPKLDTLAKFTIAVINTKGRVGDEAFADFLEVGYTPENALDVVLGVSLASLCNYANNMADTPINPELQQYVK”, the protein production result was “not failed”.

With “MSKGTTSQDAPFGTLLGYAPGGVAIYSSDYSSLDPQEYEDDAVFRSYIDDEYMGHKWQCVEFARRFLFLNYGVVFTDVGMAWEIFSLRFLREVVNDNILPLQAFPNGSPRAPVAGALLIWDKGGEFKDTGHVAIITQLHGNKVRIAEQNVIHSPLPQGQQWTRELEMVVENGCYTLKDTFDDTTILGWMIQTEDTEYSLPQPEIAGELLKISGARLENKGQFDGKWLDEKDPLQNAYVQANGQVINQDPYHYYTITESAEQELIKATNELHLMYLHATDKVLKDDNLLALFDIPKILWPRLRLSWQRRRHHMITGRMDFCMDERGLKVYEYNADSASCHTEAGLILERWAEQGYKGNGFNPAEGLINELAGAWKHSRARPFVHIMQDKDIEENYHAQFMEQALHQAGFETRILRGLDELGWDAAGQLIDGEGRLVNCVWKTWAWETAFDQIREVSDREFAAVPIRTGHPQNEVRLIDVLLRPEVLVFEPLWTVIPGNKAILPILWSLFPHHRYLLDTDFTVNDELVKTGYAVKPIAGRCGSNIDLVSHHEEVLDKTSGKFAEQKNIYQQLWCLPKVDGKYIQVCTFTVGGNYGGTCLRGDESLVIKKESDIEPLIVVKK”, the protein production entry is “failed”.

Take “MSKIDWDSPEGAERYDRNCDHQFQKGHVLIEMMGIKKGDFVLDVGCGTGRQALNVAGIIGPAGKLTGIDPSSYRIELARKKFEGDSSGNVRFLVRQAENLQDIPDNSINHAYFCSSFHWVDDKKTALNEIFRVLRPGGKVGMTTLDRNSPNTMKALIDPILAKFGIERRHEWHRGMKKVTAPELHDLLSGAGFTSISIEPRAVPRKYNSPEEFLQHPEEKDSSRGILRDISNETLEKLRQEITEEFRKAQTPEDIGFGNITLFAIATKAQEGI”: the protein production result is “failed”.

With “MSKKETDLGRDSIGKLLFKLAMPAIIAQLVNVLYNIVDRMFIGRLQSGDMAMAGVGVAFPIIMIVAAFSGLVGMGGAPLAAIKMGEKKKEDAEEIMTNSFSALIGLALFLTVFFFIFKEPILWAFGASDATIGYALDYLGIYLIGTIFVQIALGMNSFINTQGFAKVGMITVMVGAVINIVLDPILIFGFNMGVKGAALATIIGQCASAIWVLYFLFEKQSILRIRKKFLKPKLKILFSIMALGVSPFIMQATESLVIISMNNNLLKYGGDLAVGAMTIMSSVMQIILLPLMGLSQGAQPIISYNYGANKVYRVKKAFKLLLVSSMVFTTIMWSALMMLPDVFVKIFNSNNPQLMEITSWSIKIYFAGILLFGAQVACQQTFLALGQAKISLILALLRKIVLLIPFIYVLPMVFENKLMGVLMAEPFADIIAALSTVTCFIVFYKKHLSQGLEEEIKVNS”, the protein production entry is given as “failed”.

In the case of “MSKKIRNTEVDHLFDAILTLENKEECYTFFEDVCTVNELLSISQRYEVAKMLREGKTYLDISNATGASTATISRVNRSLNYGNDGYDMVLERVLKKDE”, the protein production entry is on record as “not failed”.

As for “MSKKKETKLSKYIKVPIKMLVKARDMYIRSMNQFSSHDLPGSGMSFGIPVCNVSTLPRSFSASHSQYSVRAEDDRVAKLVRAASARNATIDGARHEPSKLRKAKSSRSCGGHRGFEKIDEASPLISFGSKHKMFQRSKSYSVVKYLGS”, the protein production result is recorded as “failed”.

With “MSKNDKPLVSIGIPTYNRAESLKRAINSAVNQTYTNLEIIISDNCSIDETQQLCEELCKLDSRITYIRQAKNFGATNNFSFVLKKATGEYFMWLADDDWISENYIYDCQFFLQNNHQYLLCSGIAKYYLGDDIRMGENICLEENSPIERVKEYFNKVQDNGIFYGLYRKEAVLKLRIPSCFGGDWVFIACILLLGKATTLNTCVIHRVFQEKSTEDYAKEINSKYVLEKSYPYAFICFHFFSEIERTLILQNILTKQQKILLFLDILLTLMRRFGHLYSIEYGWLNIFCIRKKLISLLKIIIRNFRQSCLYFIDSLRTFIYNLKYTPQMYQLYASSKQKNSDLKKLAFFSPVKPIKSGISDYSEELIRFLCKKYQIFVFIDDSYTEKQCPNIENTFYLNHRLFPITSKILGIKKIVYQIGNNYYHNYMFKYINKNHGIVVLHDGIHMSGNVLQQPERHKIVVHSLSASTQVKSKYPNLSVNVISLLMSLPEENLKQDKNSLRHELNIDINTFVFGVFGIISEPKMVYELLLAFCHSFVQNENVAFLMVGYEIADSRVLNFLRANEDDKRLVCKLGVSMEDLYKFIKVTDACFNLRSTSRGETSSSLLRVMSCGIPVIASDIDSFSELPSDVLLKVSQNLSQDELSSILKKIYNEKDKLKEIGKKGKSYINSFHSPSKISDIYSTLIEIE”, the protein production result is “failed”.

With “MSKQPWLGYLASVAITCTAAGLAYLLDHWLLPTSGTVLILQLAVLLIAFLTNFRAALLAVVLALLLFNFLFTEPRYSLHMTDIDEMVTAIVFIAVGVITSHLVTLFRNQKESLRQAQLRSNILLSVSHDLRTPLASVIGNLSTLQAYQERLPEQERAELLQGALDESDRLHRYIENLLQATRLQHGEIRLTHAVQDIRPVISKTLSRFASQERLLVKDNLQHAMVEVQSSLLEQALFNVIDNAMRFSGETAPVTLSLSETDKFIVIDIKDEGPGIETSKRSLVFNVFYSSREKDSGTGGTGLGLSVAKGIIDIHNGHIGIEESPDGCLVRIKLPRANITEEVS”, the protein production entry was “failed”.

Regarding “MSKRVLMVVTNHTTITDDHKTGLWLEEFAVPYLVFQEKGYDVKVASIQGGEVPLDPRSINEKDPSWAEAEAALKHTARLSKDDAHGFDAIFLPGGHGTMFDFPDNETLQYVLQQFAEDGRIIAAVCHGPSGLVNATYKDGTPIVKGKTVTSFTDEEEREVGLDVHMPFLLESTLRLRGANFVRGGKWTDFSVRDGNLITGQNPQSSRSTAEKVVAALEERE”, the protein production entry is “not failed”.

The record behind these values is a protein production outcome set (Wang et al. 2014).
